Results from patent US20170157165A1.

Molecular target: Human FGF2 (manufactured by Peprotech Inc.) (human) (UniProt P09038)
Assay: cell-based or functional assay

Chain of Human FGF2 (manufactured by Peprotech Inc.) (human) (P09038 135-288 limits assumed): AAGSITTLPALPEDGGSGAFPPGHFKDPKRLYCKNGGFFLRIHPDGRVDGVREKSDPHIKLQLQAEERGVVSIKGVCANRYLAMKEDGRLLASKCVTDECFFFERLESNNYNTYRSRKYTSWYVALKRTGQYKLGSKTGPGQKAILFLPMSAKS

inhibitory rate (%) of FGF2-dependent growth of HUVEC cells; 3H3 (1 nM) + FGF2 (500 pM): 8.5% | inhibitory rate (%) of FGF2-dependent growth of HUVEC cells; 3H3 (5 nM) + FGF2 (500 pM): 30% | inhibitory rate (%) of FGF2-dependent growth of HUVEC cells; 3H3 (25 nM) + FGF2 (500 pM): 100%
Substance: anti-FGF2 antibody Anti-FGF, basic (Ab-3) Mouse mAb (3H3) (manufactured by Calbiochem)
